The record followed here is paper doi:10.1101/2025.01.13.632804.

For assay [1], the target named is GST-FKBP12 (mouse) (UniProt P26883). The experiment in a line: pull-down.
Assay [2] has as its target Porcine brain tubulin (growing microtubules) (porcine). The experiment in a line: TIRF microscopy of GFP-CRMP2A on growing microtubules in vitro.

Sequence of UniProt P26883 (P26883 whole entry): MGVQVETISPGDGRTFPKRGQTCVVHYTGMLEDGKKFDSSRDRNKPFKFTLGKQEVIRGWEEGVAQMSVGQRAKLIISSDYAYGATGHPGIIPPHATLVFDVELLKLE

Regarding “Cdk5-phosphorylated FLAG-CRMP2A (natural protein)”, in assay [1], the pull-down signal normalized to the input, relative to CRMP2A without Cdk5 was found to be 0.39.
As to “FLAG-CRMP2A S27A, S623A, expressed under high Cdk5 activity (natural protein)”, the pull-down signal relative to WT CRMP2A in the presence of Cdk5 in assay [1] was 2.59.
Still for that read-out and setting: the result for “FLAG-CRMP2A S27A, expressed under high Cdk5 activity (natural protein)” reads 2.57.
Take “FLAG-CRMP2A S623A, expressed under high Cdk5 activity (natural protein)”: the pull-down signal relative to WT CRMP2A in the presence of Cdk5 in assay [1] worked out at 1.75.
Substance “FLAG-CRMP2AΔ604 (CRMP2A 1-604) (domain or fragment)” yielded a pull-down signal normalized to the input, relative to CRMP2A in assay [1] of 2.82.
For the substance “FLAG-tagged GFP-CRMP2A (natural protein)”, in assay [2], the length of the GFP-positive ends was 0.297 um, the length of the GFP-positive ends (with FKBP12) came to 0.133 um, the persistence of GFP signal worked out at 33.1 s and the persistence of GFP signal (with FKBP12) was found to be 18.7 s.
